Measured values from patent US20100076060.

How the values were obtained:
[1] = biological target: T1, 4-1BB (CD137) extracellular portion (Mus musculus) (UniProt P20334); test: filter; settings: 2'-F pyrimidines
T1 sequence: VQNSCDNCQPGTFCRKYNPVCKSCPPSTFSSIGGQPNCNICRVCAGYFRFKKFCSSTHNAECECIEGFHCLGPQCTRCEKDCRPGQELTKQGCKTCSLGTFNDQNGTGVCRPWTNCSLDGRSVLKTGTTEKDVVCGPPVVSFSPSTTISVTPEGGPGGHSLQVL

[2] = biological target: 4-1BB (CD137) extracellular portion (Homo sapiens) (UniProt Q07011); test: filter; settings: 2'-F pyrimidines; alternating mouse/human selection pool
Chain of 4-1BB (CD137) extracellular portion (Homo sapiens) (Q07011 24-186): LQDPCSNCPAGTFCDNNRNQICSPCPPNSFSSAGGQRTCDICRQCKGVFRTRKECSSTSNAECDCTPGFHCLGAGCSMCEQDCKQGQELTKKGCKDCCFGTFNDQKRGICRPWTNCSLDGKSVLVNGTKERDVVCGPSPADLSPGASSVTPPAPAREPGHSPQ

Sequence | Kd ([1]; alternating mouse/human selection pool) [nM] | Kd [2] [nM] | Kd ([1]; round 12 pool) [nM]
GGGAGAGAGGAAGAGGGAUGGGNNNNNNNNNNNNNNNNNNNNNNNNNNNNNNNNNNNNNNNNCAUAACCCAGAGGUCGAUAGUACUGGAUCCCCCC [mouse/human 4-1BB alternating selection final pool] | 200 | 23 | 
GGGAGAGAGGAAGAGGGAUGGGNNNNNNNNNNNNNNNNNNNNNNNNNNNNNNNNNNNNNNNNCAUAACCCAGAGGUCGAUAGUACUGGAUCCCCCC [mouse 4-1BB selection round 12 pool] |  |  | 50
